This note sets out measurements from article PMC12218379 (Scientific Reports, 2025).

This series concerns the molecule itself. Description: SEC-MALS. On the technique in general: SEC sorts molecules by how far they enter the pores of the column.

B1: SsRidA (SSA_0809), reactive intermediate deaminase A homolog from Streptococcus sanguinis (enzyme, UniProt A3CM35 1-126, looked up)
chain: MAKTIHTDKAPAAIGPYVQGKIVGNLLFASGQIPLSPETGEIIGTTIEEQTQQVLKNVSAILEAAGTDFDHVVKATCFLSDINDFVAFNEVYKTAFTEAFPARSAVEVARLPKDVKIEIEVIAEIL
For B1, the stoichiometry N (in general, the number of molecules, sites or subunits per partner or assembly) was determined as 3.
